Experiments:
human CD4+ T cells = assay: Cytokine secretion by CD4+ T cells with C5aR or C5aR/C5L2 blockade (Cytometric Bead Array); type: cell-based
Source text: Human blood was obtained from healthy volunteers following ethical guidelines set by Kings College London (KCL) ethics committee (REC: 09/H0804/72). PBMCs were isolated by density centrifugation (Ficoll-Paque PLUS; GE healthcare, Uppsala, Sweden). Cell subsets were isolated by magnetic separation following manufacturer's instructions (Miltenyi Biotec, Auburn, Calif.). Monocytes were positively selected using anti-CD14 microbeads (average purity 97%) and CD4^+ T cells were isolated from the CD14-negative fraction using anti-CD4 microbeads (average purity 98%). Alternatively, CD4^+ T cells were isolated from purified PBMCs by cell sorting after staining with antibodies to CD14 and CD4 and CD3.
CD4^+ T cells and CD14^+ monocytes were cultured in medium (RPMI-1640 medium (Sigma-Alich, Suffolk, UK), supplemented with 1% GlutaMAX, 1% penicillin/streptomycin (both Life Technologies, Paisley, UK) and 10% FBS (HyClone Laboratories, Logan, Utah). In the case of T cells media was supplemented with 25 U/ml IL-2 (Sigma-Aldrich; or with concentrations indicated in figure legends). CD4^+ T cells (2.5×10^5) were cultured alone or together with plate-bound anti-CD3 (OKT3, Biolegend, San Diego, Calif.), anti-CD3 and anti-CD28 (CD28.2, BD Pharmingen, San Jose, Calif.) or anti-CD3 and anti-CD46 (TRA-2-10, provided by John Atkinson, Washington University, St Louis, Mo.) all immobilised onto 48-well plates at concentrations of 2 μg/ml PBS overnight at 4° C. Monocytes (2.5×10^5) were cultured either alone or in the presence of LPS or Flagellin (1 μg/ml). […] Cells were cultured at 37° C. and 5% CO2 and cytokine secetion assessed at 12, 24 or 36 h post activation.
The Th1/Th2/Th17 Cytometric Bead Array (BD Bioscience) was used to quantify cytokine production by CD4^+ T cells and monocytes following 12 or 36 h culture under distinct activation conditions. Samples were processed following manufacturer's instructions and acquired using BD FACScan. IL-1β amounts secreted into the cell media were measured by ELISA, according to the manufacturer's protocol (R&D Systems, Abingdon, UK).

CD4+ T cells = assay: TGF-β receptor chain expression in CD4+ T cells; type: cell-based, human; settings: FIG. 16
Procedure: FIG. 16. C5L2 regulates TGF-β receptor chain expression in CD4+ T cells.
Results described above indicate that C5L2-mediated signals actively contribute to the negative regulation of human Th1 and Th17 responses. To further define C5L2-activated signaling events in CD4+ T cells, gene, miRNA and methylation arrays were performed using T cells from the C5-deficient patient and T cells activated in the presence of the dRA. […] It is believed that TGF-β is important for IL-17 production but also IFN-γ suppression. TGF-β receptor signaling via autocrine TGF-β production has been implicated as required for control of Th1 responses and prevention of autoimmunity in certain experimental models (Ishigame, et al., Proc Natl Acad Sci USA. (2013) 110(17):6961-6). It was of interest to examine whether C5L2-mediated signals regulate autocrine TGF-β production, TGF-β receptor signaling, or both.

CD14+ monocytes [1] = assay: Pro-inflammatory cytokine release by monocytes (CBA); type: cell-based, human; settings: resting and Flagellin-stimulated monocytes; 36 hours; dRA 7 μM, PMX53 10 μM; FIG. 9
Procedure: FIG. 9. C5L2 blockade induces pro-inflammatory cytokine release by human monocytes. CD14+ monocytes (2.5×10^5) were cultured for 36 hours and supernatants assayed for cytokines using CBA. Monocytes were treated with either C5aR/C5L2 double receptor antagonist (dRA; 7 μM), C5aR antagonist (PMX53; 10 μM) or control (non-treated). The effect of antagonist treatment was assessed on non-activated monocytes (white bars) as well as monocytes activated with 1 μg/ml of either Flagellin (light grey bars) or 100 ng/ml LPS (dark grey bars). Data represent n=4 experiments with SEM indicated. Statistical testing was not conducted as insufficient experimental repeats were performed to assume normal distribution. Asterisk denotes that the median value was 10,400 pg/ml.
Human blood was obtained from healthy volunteers following ethical guidelines set by Kings College London (KCL) ethics committee (REC: 09/H0804/72). PBMCs were isolated by density centrifugation (Ficoll-Paque PLUS; GE healthcare, Uppsala, Sweden). […]
(§1) The Th1/Th2/Th17 Cytometric Bead Array (BD Bioscience) was used to quantify cytokine production by CD4^+ T cells and monocytes following 12 or 36 h culture under distinct activation conditions. […] IL-1β amounts secreted into the cell media were measured by ELISA, according to the manufacturer's protocol (R&D Systems, Abingdon, UK).

CD14+ monocytes [2] = assay: IL-1β secretion by monocytes (ELISA); type: cell-based, human; settings: resting and LPS-activated (100 ng/ml, 12 h) monocytes; FIG. 8
Procedure: FIG. 8. Effect of C5L2 blockage on IL-1β secretion by resting and activated CD4+ T cells and by monocytes. […] CD4+ T cells were isolated and left non-activated or CD3/CD46-activated as described (with or without addition of the C5aR/C5L2 double antagonist, dRA, 7 μM) and IL-1β secretion into the media measured at 24 h post activation using an ELISA. CD14+ monocytes (2.5×10^5) were left non-activated or activated with 100 ng/ml LPS for 12 h and supernatants assayed for IL-1β by ELISA. Data represent n=3 experiments with SEM for the CD4+ T cells and n=1 for monocytes (conditions were performed in duplicate and shown are the median values of each condition).
Human blood was obtained from healthy volunteers following ethical guidelines set by Kings College London (KCL) ethics committee (REC: 09/H0804/72). PBMCs were isolated by density centrifugation (Ficoll-Paque PLUS; GE healthcare, Uppsala, Sweden). Cell subsets were isolated by magnetic separation following manufacturer's instructions (Miltenyi Biotec, Auburn, Calif.). […]
as §1

[3] = activated CD4+ T cells, dRA 7 μM, PMX53 10 μM, FIG. 6

B1: A8delta71-73: Dual C5aR/C5L2 receptor antagonist; C5a variant A8 (C27A, H67F, D69R, M70S, Q71L, G73R, Arg74 deleted) lacking amino acids 71-73 (protein)
chain: TLQKKIEEIAAKYKHSVVKKCCYDGAAVNNDETCEQRAARISLGPRCIKAFTECCVVASQLRANISFKRS
- secretion of IFN-γ (human CD4+ T cells; [3]): increased secretion
- secretion of IL-17 (human CD4+ T cells; [3]): increased secretion
- secretion of IL-6 (human CD4+ T cells; resting and activated CD4+ T cells, FIG. 7A): increased secretion
- expression of TGF-β receptor chains (CD4+ T cells): increased expression
- secretion of IL-6 (CD14+ monocytes [1]): promoted secretion
- IL-1β secretion (CD14+ monocytes [2]): increased IL-1β secretion
